{
  "source": "paper PMC9844859",
  "about": "“Appia: Simpler chromatography analysis and visualization” (PLOS ONE, 2023)",
  "binders": {"B1": {"name": "triheteromeric αβγ Epithelial Sodium Channel (ENaC αβγ) (complex)", "chain 1": "MEGNKLEEQDSSPPQSTPGLMKGNKREEQGLGPEPAAPQQPTAEEEALIEFHRSYRELFEFFCNNTTIHGAIRLVCSQHNRMKTAFWAVLWLCTFGMMYWQFGLLFGEYFSYPVSLNINLNSDKLVFPAVTICTLNPYRYPEIKEELEELDRITEQTLFDLYKYSSFTTLVAGSRSRRDLRGTLPHPLQRLRVPPPPHGARRARSVASSLRDNNPQVDWKDWKIGFQLCNQNKSDCFYQTYSSGVDAVREWYRFHYINILSRLPETLPSLEEDTLGNFIFACRFNQVSCNQANYSHFHHPMYGNCYTFNDKNNSNLWMSSMPGINNGLSLMLRAEQNDFIPLLSTVTGARVMVHGQDEPAFMDDGGFNLRPGVETSISMRKETLDRLGGDYGDCTKNGSDVPVENLYPSKYTQQVCIHSCFQESMIKECGCAYIFYPRPQNVEYCDYRKHSSWGYCYYKLQVDFSSDHLGCFTKCRKPCSVTSYQLSAGYSRWPSVTSQEWVFQMLSRQNNYTVNNKRNGVAKVNIFFKELNYKTNSESPSVTMVTLLSNLGSQWSLWFGSSVLSVVEMAELVFDLLVIMFLMLLRRFRSRYWSPGRGGRGAQEVASTLASSPPSHFCPHPMSLSLSQPGPAPSPALTAPPPAYATLGPRPSPGGSAGASSSTCPLGGP", "chain 2": "MHVKKYLLKGLHRLQKGPGYTYKELLVWYCDNTNTHGPKRIICEGPKKKAMWFLLTLLFAALVCWQWGIFIRTYLSWEVSVSLSVGFKTMDFPAVTICNASPFKYSKIKHLLKDLDELMEAVLERILAPELSHANATRNLNFSIWNHTPLVLIDERNPHHPMVLDLFGDNHNGLTSSSASEKICNAHGCKMAMRLCSLNRTQCTFRNFTSATQALTEWYILQATNIFAQVPQQELVEMSYPGEQMILACLFGAEPCNYRNFTSIFYPHYGNCYIFNWGMTEKALPSANPGTEFGLKLILDIGQEDYVPFLASTAGVRLMLHEQRSYPFIRDEGIYAMSGTETSIGVLVDKLQRMGEPYSPCTVNGSEVPVQNFYSDYNTTYSIQACLRSCFQDHMIRNCNCGHYLYPLPRGEKYCNNRDFPDWAHCYSDLQMSVAQRETCIGMCKESCNDTQYKMTISMADWPSEASEDWIFHVLSQERDQSTNITLSRKGIVKLNIYFQEFNYRTIEESAANNIVWLLSNLGGQFGFWMGGSVLCLIEFGEIIIDFVWITIIKLVALAKSLRQRRAQASYAGPPPTVAELVEAHTNFGFQPDTAPRSPNTGPYPSEQALPIPGTPPPNYDSLRLQPLDVIESDSEGDAI", "chain 3": "MAPGEKIKAKIKKNLPVTGPQAPTIKELMRWYCLNTNTHGCRRIVVSRGRLRRLLWIGFTLTAVALILWQCALLVFSFYTVSVSIKVHFRKLDFPAVTICNINPYKYSTVRHLLADLEQETREALKSLYGFPESRKRREAESWNSVSEGKQPRFSHRIPLLIFDQDEKGKARDFFTGRKRKVGGSIIHKASNVMHIESKQVVGFQLCSNDTSDCATYTFSSGINAIQEWYKLHYMNIMAQVPLEKKINMSYSAEELLVTCFFDGVSCDARNFTLFHHPMHGNCYTFNNRENETILSTSMGGSEYGLQVILYINEEEYNPFLVSSTGAKVIIHRQDEYPFVEDVGTEIETAMVTSIGMHLTESFKLSEPYSQCTEDGSDVPIRNIYNAAYSLQICLHSCFQTKMVEKCGCAQYSQPLPPAANYCNYQQHPNWMYCYYQLHRAFVQEELGCQSVCKEACSFKEWTLTTSLAQWPSVVSEKWLLPVLTWDQGRQVNKKLNKTDLAKLLIFYKDLNQRSIMESPANSIEMLLSNFGGQLGLWMSCSVVCVIEIIEVFFIDFFSIIARRQWQKAKEWWAWKQAPPCPEAPRSPQGQDNPALDIDDDLPTFNSALHLPPALGTQVPGTPPPKYNTLRLERAFSNQLTDTQMLDEL", "notes": "ENaC alpha subunit; ENaC beta subunit; ENaC gamma subunit; The trypsin treatment may also cut the subunits themselves; also called αβγ ENaC; source: HEK293S GnTI- cells, baculovirus, purified (GFP nanobody resin, eluted with trypsin, SEC) as described for ENaC δβγ; copies: + +"}},
  "target": "T1, Human NEDD4-2-GFP (human, UniProt Q96PU5 1-975)",
  "T1 construct": "NEDD4-2 (E3 ubiquitin ligase NEDD4-like), human; also called NEDD4-2-GFP fusion protein; source: Sf9 cells (MOI of 5, 48 hours), purified (TALON resin, SEC)",
  "T1 sequence (looked up)": "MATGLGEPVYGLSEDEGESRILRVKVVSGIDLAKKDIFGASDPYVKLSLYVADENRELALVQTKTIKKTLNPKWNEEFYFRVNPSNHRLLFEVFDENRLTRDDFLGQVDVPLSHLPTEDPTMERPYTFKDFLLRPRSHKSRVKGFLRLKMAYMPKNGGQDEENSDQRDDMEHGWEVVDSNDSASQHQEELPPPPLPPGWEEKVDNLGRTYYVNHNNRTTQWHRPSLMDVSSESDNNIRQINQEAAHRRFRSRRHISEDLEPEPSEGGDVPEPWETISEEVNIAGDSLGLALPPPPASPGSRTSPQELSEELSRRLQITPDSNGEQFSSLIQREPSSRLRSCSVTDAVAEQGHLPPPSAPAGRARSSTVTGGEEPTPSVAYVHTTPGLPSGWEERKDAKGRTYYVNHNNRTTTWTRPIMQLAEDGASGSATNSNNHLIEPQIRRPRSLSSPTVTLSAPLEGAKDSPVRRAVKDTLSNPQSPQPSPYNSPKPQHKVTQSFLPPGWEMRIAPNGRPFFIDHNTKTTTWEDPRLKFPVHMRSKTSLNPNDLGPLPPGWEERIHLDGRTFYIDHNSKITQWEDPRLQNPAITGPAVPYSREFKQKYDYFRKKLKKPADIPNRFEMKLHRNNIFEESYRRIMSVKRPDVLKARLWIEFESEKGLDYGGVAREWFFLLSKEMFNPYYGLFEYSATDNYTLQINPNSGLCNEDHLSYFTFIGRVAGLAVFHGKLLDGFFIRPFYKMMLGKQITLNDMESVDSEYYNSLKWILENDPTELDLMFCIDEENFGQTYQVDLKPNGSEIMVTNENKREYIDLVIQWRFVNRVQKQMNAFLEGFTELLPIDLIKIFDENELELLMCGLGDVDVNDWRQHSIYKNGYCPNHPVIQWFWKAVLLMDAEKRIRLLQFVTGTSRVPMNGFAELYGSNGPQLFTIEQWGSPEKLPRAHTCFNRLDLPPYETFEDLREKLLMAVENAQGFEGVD",
  "test": "SEC; fluorescence-detection SEC (FSEC), GFP channel; NEDD4-2-GFP held at 71.2 nM, ENaC αβγ added in equal amounts, five-fold or ten-fold excess; Superose 6 Increase 10/300; TBS (20 mM Tris pH 7.5, 200 mM NaCl) + 0.5 mM DDM",
  "details": "both partners purified",
  "data": [
    {"binder": "B1", "values": [
      {"measurement": "percent of total NEDD4-2 bound at a 1:5 NEDD4-2:ENaC αβγ ratio", "result": "~20", "unit": "%"}
    ]}
  ]
}
